{
  "source": "paper PMC10037368",
  "about": "(2023)",
  "binders": {"B1": {"name": "Sb92 sherpabody (designed binder)", "chain": "EEYIAVGDFFSTDPADLTFKKGEILLVIERGTSAGDGWWIAKDAKGNEGLVPRTYLEPYS"}},
  "molecular_target": "Spike glycoprotein (Wuhan-Hu-1) RBD (Severe acute respiratory syndrome …, UniProt P0DTC2)",
  "experiment": "ELISA",
  "data": [
    {"binder": "B1", "values": [
      {"measurement": "Kd", "result": 30, "unit": "nM"}
    ]}
  ]
}
